Assay results: article PMC4822050

Columns and labels:
Experiment in all cases: FP; ITC: 10 mM HEPES pH 8.0, 100 mM NaCl, 18 C; EMSA: 20 mM HEPES pH 7.5, 100 mM NaCl, 8% glycerol, 1 mM DTT, on ice; pull-down: 20 mM HEPES-NaOH pH 8.0, 100 mM NaC
UHRF1 full-length = molecular target: T1, UHRF1 full-length (human, UniProt Q96T88 1-793)
T1 sequence: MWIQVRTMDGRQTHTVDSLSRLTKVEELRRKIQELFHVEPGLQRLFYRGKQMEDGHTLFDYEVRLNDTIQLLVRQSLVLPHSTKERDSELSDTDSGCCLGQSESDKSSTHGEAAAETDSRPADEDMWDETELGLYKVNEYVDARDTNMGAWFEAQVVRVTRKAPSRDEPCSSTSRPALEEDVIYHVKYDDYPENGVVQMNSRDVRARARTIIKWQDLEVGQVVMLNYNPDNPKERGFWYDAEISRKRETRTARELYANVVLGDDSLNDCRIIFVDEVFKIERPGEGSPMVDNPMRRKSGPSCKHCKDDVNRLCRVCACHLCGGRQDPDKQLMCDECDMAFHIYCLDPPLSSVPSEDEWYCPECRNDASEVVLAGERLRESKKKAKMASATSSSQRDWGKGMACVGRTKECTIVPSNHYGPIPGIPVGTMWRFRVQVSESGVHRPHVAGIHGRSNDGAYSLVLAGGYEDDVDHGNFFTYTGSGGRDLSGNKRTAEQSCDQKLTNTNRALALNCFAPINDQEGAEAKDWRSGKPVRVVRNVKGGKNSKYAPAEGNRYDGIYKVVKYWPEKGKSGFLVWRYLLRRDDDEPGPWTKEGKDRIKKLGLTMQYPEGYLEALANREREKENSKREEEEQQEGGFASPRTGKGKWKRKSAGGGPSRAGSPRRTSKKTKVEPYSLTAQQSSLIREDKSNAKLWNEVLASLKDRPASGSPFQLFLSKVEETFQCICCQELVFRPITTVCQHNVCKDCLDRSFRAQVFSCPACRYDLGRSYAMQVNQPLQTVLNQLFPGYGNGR

SRA-Spacer = molecular target: T2, SRA-Spacer (human, UniProt Q96T88 414-674)
T2 sequence: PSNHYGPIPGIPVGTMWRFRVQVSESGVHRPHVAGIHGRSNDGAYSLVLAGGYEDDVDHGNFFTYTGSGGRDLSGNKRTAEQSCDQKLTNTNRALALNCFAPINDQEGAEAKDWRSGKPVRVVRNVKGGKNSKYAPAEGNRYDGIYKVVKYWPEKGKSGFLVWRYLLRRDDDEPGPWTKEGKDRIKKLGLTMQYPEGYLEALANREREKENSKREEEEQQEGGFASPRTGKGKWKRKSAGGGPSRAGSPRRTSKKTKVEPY

SRA-Spacer-661 = molecular target: T3, SRA-Spacer-661 (human, UniProt Q96T88 414-661)
T3 sequence: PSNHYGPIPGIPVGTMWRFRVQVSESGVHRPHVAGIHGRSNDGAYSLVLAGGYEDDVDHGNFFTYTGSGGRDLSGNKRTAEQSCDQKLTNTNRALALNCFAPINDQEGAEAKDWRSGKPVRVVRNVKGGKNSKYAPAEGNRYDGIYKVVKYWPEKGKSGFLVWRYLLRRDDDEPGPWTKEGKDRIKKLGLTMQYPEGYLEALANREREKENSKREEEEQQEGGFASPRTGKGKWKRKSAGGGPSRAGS

UHRF1 delta627-674 = molecular target: T4, UHRF1 delta627-674 (human, UniProt Q96T88 1-793, del627-674)
T4 sequence: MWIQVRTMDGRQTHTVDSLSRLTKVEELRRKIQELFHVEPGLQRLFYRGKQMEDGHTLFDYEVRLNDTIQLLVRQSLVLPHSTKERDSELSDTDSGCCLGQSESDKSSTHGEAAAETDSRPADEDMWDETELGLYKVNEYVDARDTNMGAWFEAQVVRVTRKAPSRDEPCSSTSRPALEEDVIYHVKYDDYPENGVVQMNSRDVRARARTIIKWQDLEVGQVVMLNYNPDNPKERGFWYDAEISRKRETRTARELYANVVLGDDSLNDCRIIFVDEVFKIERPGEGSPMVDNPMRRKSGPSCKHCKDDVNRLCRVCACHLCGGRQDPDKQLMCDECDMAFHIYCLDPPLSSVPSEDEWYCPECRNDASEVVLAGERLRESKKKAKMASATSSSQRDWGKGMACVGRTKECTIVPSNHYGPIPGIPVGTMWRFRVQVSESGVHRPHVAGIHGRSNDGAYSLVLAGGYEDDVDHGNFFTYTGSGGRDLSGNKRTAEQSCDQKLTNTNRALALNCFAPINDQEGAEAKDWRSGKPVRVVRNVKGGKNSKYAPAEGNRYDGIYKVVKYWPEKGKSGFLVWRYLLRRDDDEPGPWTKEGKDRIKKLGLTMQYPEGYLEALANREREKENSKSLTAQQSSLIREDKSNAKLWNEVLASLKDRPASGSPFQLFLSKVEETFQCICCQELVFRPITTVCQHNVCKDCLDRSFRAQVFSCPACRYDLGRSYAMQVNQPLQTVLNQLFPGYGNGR

B1: FAM-12bp-HM-DNA (dsDNA)
DNA 1: CCATGCGCTGAC
DNA 2: GTCAGCGCATGG
modifications: 5-methyl-dC at position 6 of strand 2 (GTCAGXGCATGG)
Kd (UHRF1 full-length): 350 ± 70 nM | Kd (SRA-Spacer): 490 ± 80 nM | Kd (SRA-Spacer-661): 380 ± 60 nM | Kd (UHRF1 delta627-674): 4940 ± 1090 nM
